B1: A-15-5-4: monoclonal, pan-reactive anti-duocarmycin antibody derived from hapten A; VH/VL SEQ ID NO:1 and 2 (antibody, listed as Mus musculus, V domains shown)
VH: QVQLQQPGAELVKPGASVKLPCKASGYTFISYYMYWVKQRPGQGLEWIGVINPSNGGTTFNEKFKNKATLTVDKSSSTAYLQLSSLTSEDSAVYYCTCLNYYGSSYWYFDVWGAGTTVTVSS
VL: DVVMTQTPLSLPVSLGDQASIFCRSSQSLVHSDGNTYLHWYLQKPGQSPKLLIYTVSNRFSGVPDRFSGSGSGTDFTLKISRVEAEDLGVYFCSQSTHVPWTFGGGTTLEIK
B2: B-6-2-10: monoclonal, pan-reactive anti-duocarmycin antibody derived from hapten B; VH/VL SEQ ID NO:3 and 4 (antibody, listed as Mus musculus, V domains shown)
VH: DVKLVESGGGLVKPGGSLKLSCAASGFTFRTYTMSWVRQTPEKRLEWVATISSGGSYTYYPDSMKGRFTISRDNAKNTLYLQMSSLKSEDTAMYYCTRGPFYDVYYFLFAYWGQGTLVTVSA
VL: QAVVTQESALTTSPGETVTLTCRSSIGAVTTTNYANWVQEKPDHLFTGLIGGTNNRAPGVPARFSGSLIGDKAALTITGAQTEDEAIYFCALWYSNHWVFGGGTKLTVL
B3: C-16-1-7: monoclonal, pan-reactive anti-duocarmycin antibody derived from hapten C; VH/VL SEQ ID NO:5 and 6 (antibody, listed as Mus musculus, V domains shown)
VH: EVKLVESGGGLVKPGGSLKVSCAASGFTFSSYAMSWVRQIPDKRLEWVASISTGGITYYLDGVKGRFTISRDNARNILYLQMSSLRSEDTAIYYCARWSYAMDYWGQGTSVTVSS
VL: QIVLTQSPAIMSASLGERVTMTCTASSSVSSSYLHWYQQKPGSSPKVWIYSTSNLASGVPARFRGSGSGTSYSLTISSMEAEDAATYYCHQYHRSPPTFGGGTKLEIK

Each molecule was assayed on panel of 18 different duocarmycin-containing antibody-drug conjugates having a common DNA alkylating moiety (assay: BIA (Biomolecular Interaction Analysis) assay, surface plasmon resonance, second screening for pan-reactive antibodies). Conditions: anti-hapten mAb captured on polyclonal anti-mouse surface; ADCs 1 to 18 of FIG. 2 injected sequentially, approx. 20 μg/mL, 25° C.
Type: binding
Source text: The samples of the supernatant culture fluid are screened with a suitable assay for the selection of pan-reactive antibodies reactive to the antigen. Suitable immunoassays are well known and may be readily determined by the person skilled in the art. A preferred immuno-assay is the Biomolecular Interaction Analysis (BIA) assay in which the sensor chip surface is modified by immobilization of polyclonal anti-mouse which results in a surface that can bind any mouse monoclonal antibodies.
In a specific embodiment of the present invention, the BIA assay is performed using an anti-hapten A, B or C monoclonal antibody captured on a polyclonal anti-mouse surface to a high binding level (capture reagent). Subsequently, a panel of duocarmycin-containing antibody-drug conjugates is injected sequentially and the signal (RU, resonance or responsive units) indicating binding is recorded. The panel of duocarmycin derivatives contain the same DNA alkylating moiety as a common structural moiety (as shown hereinabove), but have a different DNA binding moiety, and/or linker, and/or antibody. Monoclonal, pan-reactive antibodies are selected based on surface plasmon resonance (SPR), which response is directly proportional to the mass increase on the surface. An increase in mass on the surface is a positive binding reaction. Those antibodies binding to at least 3, preferably at least 5, more preferably at least 10, even more preferably at least 15, most preferably at least 18 different duocarmycin-containing antibody-drug conjugates having the same DNA alkylating moiety described hereinabove, are selected as pan-reactive antibodies in accordance with the present invention.
The BIA (Biomolecular Interaction Analysis) assay was used for the selection of monoclonal, pan-reactive antibodies. One flow cell on a CMS sensor chip was immobilized by amine coupling with polyclonal anti-mouse to a level of approx. 16,000 RU. […]

Molecule	binding to a panel of 18 different duocarmycin-containing antibody-drug conjugates
B1	show binding
B2	show binding
B3	show binding

From US20170320965A1, “PAN-REACTIVE ANTIBODIES TO DUOCARMYCINS” (SYNTHON BIOPHARMACEUTICALS B.V., priority 2014, published 2017)
